26 molecules from US20240327517A1 (SUZHOU SMARTNUCLIDE BIOPHARMACEUTICAL, published 2024) can be followed below.

Assay [1] has as its target T1, CD8α Fc fusion protein (UniProt P01732 22-182, limits assumed).
T1 construct: Used as the coating antigen of the ELISAs; also called CD8α antigen; CD8α protein; not shown: Fc part
Put plainly: affinity detection of humanized variants (method not restated; taken as the CD8α Fc ELISA of section 1.2); relative to C37-F1. As for the experimental part:
(§1) After washing, an anti-His horseradish peroxidase-labeled antibody was added to allow reaction for 1 hour at room temperature. After washing, a chromogenic solution was added, and an absorption value was read at a wavelength of 450 nm. The software SotfMaxPro v5.4 was used for data processing and diagraph analysis; four-parameter fitting was performed to obtain the binding curve of the mutated antibody to CD8α; and different mutants were compared in relative activity with the C37 antibody as a control, in order to reflect the affinity of the antibody to CD8α.
Background: ELISA stands for enzyme-linked immunosorbent assay.

In assay [2] the target is T1, CD8α Fc fusion protein. Nature of the assay: ELISA, plate coated with CD8α Fc fusion protein, anti-His-HRP detection, 4-parameter fit; relative to C37.
Source text: The expression level and binding activity of each mutant were separately detected. For the sake of detection, a histidine-tagged recombinant plasmid was used in this section for transient transfection, after which a recombinant protein was purified by affinity chromatography with a corresponding Ni+ resin gel, thereby obtaining a protein of interest for direct use in the detection of expression level and binding activity.
as §1

Assay [3] has as its target T2, PROTEIN A (packing of the PROTEIN A affinity chromatography) (UniProt P38507 37-327, limits assumed). Put plainly: binding to the Protein A affinity packing.
Assay [4] has as its target T2, PROTEIN A (packing of the PROTEIN A …). Put plainly: Protein A affinity chromatography of HEK293-expressed protein, SDS-PAGE of fractions. The source says:
After preliminary screening and identification, C37-cHis was selected as a final antibody sequence (including a histidine tag) from candidate antibodies, and meanwhile, an untagged recombinant plasmid C37 was constructed. HEK293 cells were transfected with the single-domain antibody C37 fusion protein plasmid constructed by the above recombination for expression of an antibody. […] Therefore, it was necessary to optimize the sequence of the C37 antibody to allow purification of the C37 antibody by affinity chromatography.
The recombinant plasmid C37 and the mutated recombinant plasmid C37-YDHMS were subjected to antibody expression via the HEK293 cells, respectively, and purification was conducted by means of the packing of the PROTEIN A affinity chromatography, in order to verify the binding to the affinity packing after the mutations.

T1 sequence (P01732 22-182 limits assumed): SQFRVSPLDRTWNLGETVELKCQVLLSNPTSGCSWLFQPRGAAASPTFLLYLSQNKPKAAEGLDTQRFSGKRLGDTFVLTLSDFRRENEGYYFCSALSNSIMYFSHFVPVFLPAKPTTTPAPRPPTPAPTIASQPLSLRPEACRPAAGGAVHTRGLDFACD

B1: C37H (humanized variant of C37-F1) (VHH)
VHH: QVQLVESGGGLVQPGGSLRLSCAASGLTFSDYAIGWFRQAPGKEREGISCIRIYDGNTYYADSVKGRFTISRDNSKNHVYLQMNSLRAEDTAVYYCAAGSYYSCSVYPAYDLDYWGKGTLVTVSS
On to B1, for which the “Relative activity (%)” value in assay [1] stood at 151%.

B2: C37-H2 (humanized variant of C37-F1) (VHH)
VHH: QVQLVESGGGLVQPGGSLRLSCAASGLTFSDYAIGWFRQAPGKEREGISCIRIYDRNTYYADSVKGRFTISRDNSKNHVYLQMNSLRAEDTAVYYCAAGSYYSCSVYPAYDLDYWGQGTLVTVSS
Take B2: the “Relative activity (%)” value in assay [1] turned out to be 122%.

B3: C37-H1 (humanized variant of C37-F1) (VHH)
VHH: QVQLVESGGGLVQPGGSLRLSCAASGLTFSDYAIGWFRQAPGKEREGISCIRIYDGRTYYADSVKGRFTISRDNSKNHVYLQMNSLRAEDTAVYYCAAGSYYSCSVYPAYDLDYWGQGTLVTVSS
B3: the “Relative activity (%)” value in assay [1] worked out at 110%.

B4: C37-S72R (histidine-tagged) (VHH)
VHH: QLQLVESGGGLVQAGGSLRLSCAASGLTFEDYAIGWFRQAPGKEREGISCIRIYDGNTYSAESVKGRFTISRDNAKNQVYLQINTLKPEDTAVYYCAAGSYYSCSVYPDYDMDYWGKGTLVTVSS
notes: not shown: histidine tag
For B4, the “Relative activity (%)” value in assay [2] was found to be 115%.

B5: C37-ST-YS (VHH)
VHH: QLQLVESGGGLVQAGGSLRLSCAASGLTFEDYAIGWFRQAPGKEREGISCIRIYDGNTYYAESVKGRFTISSDNAKNQVYLQINSLKPEDTAVYYCAAGSYYSCSVYPDYDMDYWGKGTLVTVSS
notes: Mutant of section 1.1 (Protein A test); No tag is mentioned for this section
On to B5, for which, in assay [3], the binding result is “no binding”.

B6: C37-RA (histidine-tagged) (VHH)
VHH: QLQLVESGGGLVQAGGSLRLSCAASGLTFEDYAIGWFRQAPGKEREGISCIRIYDGNTYSAESVKGRFTISRDNAKNQVYLQINTLKPEDTAVYYCAAGSYYSCSVYPAYDMDYWGKGTLVTVSS
notes: not shown: histidine tag
For B6, the “Relative activity (%)” value in assay [2] stood at 108%.

B7: C37 single-domain antibody (untagged) (VHH)
VHH: QLQLVESGGGLVQAGGSLRLSCAASGLTFEDYAIGWFRQAPGKEREGISCIRIYDGNTYSAESVKGRFTISSDNAKNQVYLQINTLKPEDTAVYYCAAGSYYSCSVYPDYDMDYWGKGTLVTVSS
notes: The untagged construct was expressed in HEK293 and used in the Protein A test; also called C37 antibody
In the case of B7, the binding result in assay [4] is listed as “no binding”.

B8: C37-E30S (histidine-tagged) (VHH)
VHH: QLQLVESGGGLVQAGGSLRLSCAASGLTFSDYAIGWFRQAPGKEREGISCIRIYDGNTYSAESVKGRFTISSDNAKNQVYLQINTLKPEDTAVYYCAAGSYYSCSVYPDYDMDYWGKGTLVTVSS
notes: not shown: histidine tag
With B8, in assay [2], the “Relative activity (%)” value was found to be 126%.

B9: C37-KL-QQ (histidine-tagged) (VHH)
VHH: QLQLVESGGGLVQAGGSLRLSCAASGLTFEDYAIGWFRQAPGKEREGISCIRIYDGNTYSAESVKGRFTISSDNAKNQVYLQINTLKPEDTAVYYCAAGSYYSCSVYPDYDMDYWGQGTQVTVSS
notes: not shown: histidine tag
Regarding B9, the “Relative activity (%)” value in assay [2] is 141%.

B10: C37-TMS (histidine-tagged) (VHH)
VHH: QLQLVESGGGLVQAGGSLRLSCAASGLTFEDYAIGWFRQAPGKEREGISCIRIYDGNTYSAESVKGRFTISSDNAKNTVYLQMNSLKPEDTAVYYCAAGSYYSCSVYPDYDMDYWGKGTLVTVSS
notes: not shown: histidine tag
In the case of B10, the “Relative activity (%)” value in assay [2] stood at 107%.

B11: C37-SRS (histidine-tagged) (VHH)
VHH: QLQLVESGGGLVQAGGSLRLSCAASGLTFSDYAIGWFRQAPGKEREGISCIRIYDGNTYSAESVKGRFTISRDNAKNQVYLQINSLKPEDTAVYYCAAGSYYSCSVYPDYDMDYWGKGTLVTVSS
notes: not shown: histidine tag
As to B11, in assay [2], the “Relative activity (%)” value came to 33%.

B12: C37-M112L (histidine-tagged) (VHH)
VHH: QLQLVESGGGLVQAGGSLRLSCAASGLTFEDYAIGWFRQAPGKEREGISCIRIYDGNTYSAESVKGRFTISSDNAKNQVYLQINTLKPEDTAVYYCAAGSYYSCSVYPDYDLDYWGKGTLVTVSS
notes: not shown: histidine tag
Regarding B12, in assay [2], the “Relative activity (%)” value was found to be 206%.

B13: C37-D31Y (histidine-tagged) (VHH)
VHH: QLQLVESGGGLVQAGGSLRLSCAASGLTFEYYAIGWFRQAPGKEREGISCIRIYDGNTYSAESVKGRFTISSDNAKNQVYLQINTLKPEDTAVYYCAAGSYYSCSVYPDYDMDYWGKGTLVTVSS
notes: not shown: histidine tag
For B13, the “Relative activity (%)” value in assay [2] was found to be 48.4%.

B14: C37-T85S (histidine-tagged, section 1.2) (VHH)
VHH: QLQLVESGGGLVQAGGSLRLSCAASGLTFEDYAIGWFRQAPGKEREGISCIRIYDGNTYSAESVKGRFTISSDNAKNQVYLQINSLKPEDTAVYYCAAGSYYSCSVYPDYDMDYWGKGTLVTVSS
notes: not shown: histidine tag
Regarding B14, in assay [2], the “Relative activity (%)” value was 162%.

B15: C37-YDMS (VHH)
VHH: QLQLVESGGGLVQAGGSLRLSCAASGLTFEDYAIGWFRQAPGKEREGISCIRIYDGNTYYADSVKGRFTISSDNAKNQVYLQMNSLKPEDTAVYYCAAGSYYSCSVYPDYDMDYWGKGTLVTVSS
notes: as for B5
Take B15: the binding result in assay [3] is on record as “no binding”.

B16: C37-H4 (humanized variant of C37-F1) (VHH)
VHH: QVQLVESGGGLVQPGGSLRLSCAASGLTFSDYAIGWFRQAPGKEREGISCIRIYDGNTYYADSVKGRFTISRDNSKNHVYLQMNSLKPEDTAVYYCAAGSYYSCSVYPAYDLDYWGKGTLVTVSS
Consider B16, for which, in assay [1], the “Relative activity (%)” value came to 141%.

B17: C37-SRA (histidine-tagged) (VHH)
VHH: QLQLVESGGGLVQAGGSLRLSCAASGLTFSDYAIGWFRQAPGKEREGISCIRIYDGNTYSAESVKGRFTISRDNAKNQVYLQINTLKPEDTAVYYCAAGSYYSCSVYPAYDMDYWGKGTLVTVSS
notes: not shown: histidine tag
For the molecule B17, the “Relative activity (%)” value in assay [2] worked out at 40%.

B18: C37-S60Y (VHH)
VHH: QLQLVESGGGLVQAGGSLRLSCAASGLTFEDYAIGWFRQAPGKEREGISCIRIYDGNTYYAESVKGRFTISSDNAKNQVYLQINTLKPEDTAVYYCAAGSYYSCSVYPDYDMDYWGKGTLVTVSS
notes: as for B5
With B18, the binding result in assay [3] was “no binding”.

B19: C37-D109A (histidine-tagged) (VHH)
VHH: QLQLVESGGGLVQAGGSLRLSCAASGLTFEDYAIGWFRQAPGKEREGISCIRIYDGNTYSAESVKGRFTISSDNAKNQVYLQINTLKPEDTAVYYCAAGSYYSCSVYPAYDMDYWGKGTLVTVSS
notes: not shown: histidine tag
Turning to B19, the “Relative activity (%)” value in assay [2] amounted to 476%.

B20: C37-D111A (histidine-tagged) (VHH)
VHH: QLQLVESGGGLVQAGGSLRLSCAASGLTFEDYAIGWFRQAPGKEREGISCIRIYDGNTYSAESVKGRFTISSDNAKNQVYLQINTLKPEDTAVYYCAAGSYYSCSVYPDYAMDYWGKGTLVTVSS
notes: not shown: histidine tag
B20: the “Relative activity (%)” value in assay [2] came out at 84.6%.

B21: C37-H3 (humanized variant of C37-F1) (VHH)
VHH: QVQLVESGGGLVQPGGSLRLSCAASGLTFSDYAIGWFRQAPGKEREGISCIRIYDGNTYYADSVKGRFTISRDNAKNHVYLQMNSLRAEDTAVYYCAAGSYYSCSVYPAYDLDYWGKGTLVTVSS
As for B21, the “Relative activity (%)” value in assay [1] was determined as 171%.

B22: C37-YDS (VHH)
VHH: QLQLVESGGGLVQAGGSLRLSCAASGLTFEDYAIGWFRQAPGKEREGISCIRIYDGNTYYADSVKGRFTISSDNAKNQVYLQINSLKPEDTAVYYCAAGSYYSCSVYPDYDMDYWGKGTLVTVSS
notes: as for B5
With B22, the binding result in assay [3] is on record as “no binding”.

B23: C37-YMS (VHH)
VHH: QLQLVESGGGLVQAGGSLRLSCAASGLTFEDYAIGWFRQAPGKEREGISCIRIYDGNTYYAESVKGRFTISSDNAKNQVYLQMNSLKPEDTAVYYCAAGSYYSCSVYPDYDMDYWGKGTLVTVSS
notes: as for B5
As to B23, the binding result in assay [3] was “no binding”.

B24: C37-RSA (histidine-tagged) (VHH)
VHH: QLQLVESGGGLVQAGGSLRLSCAASGLTFEDYAIGWFRQAPGKEREGISCIRIYDGNTYSAESVKGRFTISRDNAKNQVYLQINSLKPEDTAVYYCAAGSYYSCSVYPAYDMDYWGKGTLVTVSS
notes: not shown: histidine tag
As for B24, the “Relative activity (%)” value in assay [2] stood at 103%.

B25: C37-SR (histidine-tagged) (VHH)
VHH: QLQLVESGGGLVQAGGSLRLSCAASGLTFSDYAIGWFRQAPGKEREGISCIRIYDGNTYSAESVKGRFTISRDNAKNQVYLQINTLKPEDTAVYYCAAGSYYSCSVYPDYDMDYWGKGTLVTVSS
notes: not shown: histidine tag
B25: the “Relative activity (%)” value in assay [2] was determined as 42%.

B26: C37-SA (histidine-tagged) (VHH)
VHH: QLQLVESGGGLVQAGGSLRLSCAASGLTFEDYAIGWFRQAPGKEREGISCIRIYDGNTYSAESVKGRFTISSDNAKNQVYLQINSLKPEDTAVYYCAAGSYYSCSVYPAYDMDYWGKGTLVTVSS
notes: not shown: histidine tag
As for B26, the “Relative activity (%)” value in assay [2] stood at 257%.
